We go through 61 sequences from the supplement of paper PMC7877785.

± gives the uncertainty stated by the source.

The data set can be described thus: self-splicing fitness, log relative to wild type (ln ratio); higher = more splicing; Tetrahymena group I intron in knt gene, E. coli kanamycin selection, DiMSum; sequences stand for … in CUCUCU…GGAGGGAAAAGUUAUCAGGCAUGCACCUGGUAGCUAGUCUUUAAACCAAUAGAUUGCAUCGGUUUAAAAGGCAAGACCGUCAAAUUGCGGGAAAGGGGUCAACAGCCGUUCAGUACCAAGUCUCAGGGGAAACUUUGAGAUGGCCUUGCAAAGGGUAUGGUAAUAAGCUGACGGACAUGGUCCUAACCACGCAGCCAAGUCCUAAGUCAACAGAUCUUCUGUUGAUAUGGAUGCAGUUCACAGACUAAAUGUCGGUCGGGGAAGAUGUAUUCUUCUCAUAAGAUAUAGUCGGACCUCUCCUUAAUGGGAGCUAGCGGAUGAAGUGAUGCAACACUGGAGCCGCUGGGAACUAAUUUGUAUGCGAAAGUAUAUUGAUUAGUUUUGGAGUACUCGUGGUCG
In short, it runs like this: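 Fitness was computed with DiMSum as the error-weighted combination of replicate fold changes, kanamycin versus none, each normalised to wild type. The library randomised all eight intron nucleotides of the P1ex region, with the intron placed in the knt kanamycin-resistance gene on pET-22b(+) in E. coli BL21(DE3). Six replicate transformations were grown overnight at 37°C or 30°C on LB agar with or without 25 μg/mL kanamycin, plus 100 μg/mL carbenicillin, 50 μM IPTG and 0.2% rhamnose. Pooled colonies were amplicon-sequenced on an Illumina HiSeq 2500.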

Turning to GCUUAGCAAUAUUACGUAGU, the “self-splicing fitness (ln)” value is -1.2 ± 0.092 (30 °C) and -0.156 ± 0.11 (37 °C).

For GCUUAGCAAUAUUACGUCCA, the “self-splicing fitness (ln)” value (30 °C) was -1.72 ± 0.14 and the “self-splicing fitness (ln)” value (37 °C) is -0.697 ± 0.14.

In the case of GCUUAGCAAUAUUACGUUAC, the “self-splicing fitness (ln)” value is -2.56 ± 0.18 (30 °C) and -1.88 ± 0.19 (37 °C). The matching figures for GCUUAGCAAUAUUACGUUAG: -1.56 ± 0.13 and -1.1 ± 0.15. GCUUAGCAAUAUUACGUUCC: the “self-splicing fitness (ln)” value runs as follows: (30 °C) -0.313 ± 0.19; (37 °C) -0.542 ± 0.23. Regarding GCUUAGCAAUAUUACGUUCG, the “self-splicing fitness (ln)” value is -0.857 ± 0.095 (30 °C) and -0.972 ± 0.11 (37 °C). The matching figures for GCUUAGCAAUAUUACGUUUC: -1.2 ± 0.099 and -0.547 ± 0.11.

In the case of GGAAAGCAAUAUUACGAAAC, the “self-splicing fitness (ln)” value by setting is: (30 °C) -1.37 ± 0.13; (37 °C) -0.659 ± 0.17.

Turning to GGAAAGCAAUAUUACGAAAG, the “self-splicing fitness (ln)” value (30 °C) is -4.01 ± 0.35 and the “self-splicing fitness (ln)” value (37 °C) was -3.08 ± 0.35. The matching figures for GGAAAGCAAUAUUACGAACC: -3.32 ± 0.33 and -1.2 ± 0.19. The matching figures for GGAAAGCAAUAUUACGAAGA: -2.45 ± 0.3 and -1.57 ± 0.21.

Regarding GGAAAGCAAUAUUACGACAU, the “self-splicing fitness (ln)” value by setting is: (30 °C) -0.445 ± 0.013; (37 °C) -0.0162 ± 0.033. The matching figures for GGAAAGCAAUAUUACGACCU: -0.756 ± 0.15 and -0.363 ± 0.18. GGAAAGCAAUAUUACGAGAA: where the note is “37 °C”, the “self-splicing fitness (ln)” value was -1.29 ± 0.27. For the sequence GGAAAGCAAUAUUACGAGGA, the “self-splicing fitness (ln)” value runs as follows: (30 °C) -2.88 ± 0.21; (37 °C) -1.93 ± 0.24.

For GGAAAGCAAUAUUACGAGUG, the “self-splicing fitness (ln)” value is, setting by setting: (30 °C) -3.38 ± 0.12; (37 °C) -1.85 ± 0.1.

For the sequence GGAAAGCAAUAUUACGAUGC, the “self-splicing fitness (ln)” value (30 °C) is -0.209 ± 0.087 and the “self-splicing fitness (ln)” value (37 °C) was -0.26 ± 0.12. As to GGAAAGCAAUAUUACGCAAG, the “self-splicing fitness (ln)” value was -1.26 ± 0.14 (30 °C) and -1.13 ± 0.18 (37 °C). The matching figures for GGAAAGCAAUAUUACGCAGA: -3.75 ± 0.28 and -1.52 ± 0.18. For GGAAAGCAAUAUUACGCGUA, the “self-splicing fitness (ln)” value (30 °C) was -1.45 ± 0.14 and the “self-splicing fitness (ln)” value (37 °C) was -1.52 ± 0.13. The matching figures for GGAAAGCAAUAUUACGCUGU: -1.07 ± 0.11 and -0.375 ± 0.17.

For the sequence GGAAAGCAAUAUUACGCUUA, the “self-splicing fitness (ln)” value reads like this: (30 °C) -0.976 ± 0.17; (37 °C) -0.998 ± 0.19.

For GGAAAGCAAUAUUACGGCCA, the “self-splicing fitness (ln)” value reads like this: (30 °C) -0.368 ± 0.081; (37 °C) -0.0522 ± 0.1. For GGAAAGCAAUAUUACGGUCU, the “self-splicing fitness (ln)” value was -2.31 ± 0.12 (30 °C) and -1.17 ± 0.15 (37 °C).

GGAAAGCAAUAUUACGGUUC: the “self-splicing fitness (ln)” value reads like this: (30 °C) -3.33 ± 0.43; (37 °C) -2.23 ± 0.49. As to GGAAAGCAAUAUUACGUAAU, the “self-splicing fitness (ln)” value was -1.3 ± 0.07 (30 °C) and -1.23 ± 0.12 (37 °C).

For the sequence GGACAGCAAUAUUACGAGCC, the “self-splicing fitness (ln)” value was -1.49 ± 0.15 (30 °C) and -2.56 ± 0.25 (37 °C).

In the case of GGACAGCAAUAUUACGAGUG, the “self-splicing fitness (ln)” value by setting is: (30 °C) -3.32 ± 0.17; (37 °C) -1.79 ± 0.15. Regarding GGACAGCAAUAUUACGAUAC, the “self-splicing fitness (ln)” value reads like this: (30 °C) -0.672 ± 0.084; (37 °C) -0.478 ± 0.098. For the sequence GGACAGCAAUAUUACGAUCA, the “self-splicing fitness (ln)” value runs as follows: (30 °C) -0.381 ± 0.087; (37 °C) 0.0425 ± 0.11. The matching figures for GGACAGCAAUAUUACGCAAG: -1.69 ± 0.11 and -1.41 ± 0.12. As for GGACAGCAAUAUUACGCACG, the “self-splicing fitness (ln)” value (30 °C) is -0.391 ± 0.084 and the “self-splicing fitness (ln)” value (37 °C) was found to be 0.295 ± 0.1. GGACAGCAAUAUUACGCAUG: the “self-splicing fitness (ln)” value is, setting by setting: (30 °C) -0.84 ± 0.085; (37 °C) -0.235 ± 0.11.

With GGACAGCAAUAUUACGCAUU, the “self-splicing fitness (ln)” value is -0.834 ± 0.062 (30 °C) and -0.622 ± 0.078 (37 °C).

Consider GGACAGCAAUAUUACGCCGA, for which the “self-splicing fitness (ln)” value (30 °C) is -0.609 ± 0.11 and the “self-splicing fitness (ln)” value (37 °C) was -0.306 ± 0.12. GGACAGCAAUAUUACGCCGC: under “37 °C”, the “self-splicing fitness (ln)” value was -1.06 ± 0.5.

Turning to GGACAGCAAUAUUACGCCGG, the “self-splicing fitness (ln)” value is -3.95 ± 0.48 (30 °C) and -2.11 ± 0.32 (37 °C).

As for GGACAGCAAUAUUACGCCUC, the “self-splicing fitness (ln)” value was -0.953 ± 0.32 (30 °C) and -0.751 ± 0.3 (37 °C). The matching figures for GGACAGCAAUAUUACGCCUG: -2.65 ± 0.15 and -0.758 ± 0.13. Turning to GGACAGCAAUAUUACGCGAU, the “self-splicing fitness (ln)” value runs as follows: (30 °C) -2.52 ± 0.17; (37 °C) -2.52 ± 0.17. GGACAGCAAUAUUACGCGCG: the “self-splicing fitness (ln)” value was 0.181 ± 0.094 (30 °C) and -0.742 ± 0.11 (37 °C). The matching figures for GGACAGCAAUAUUACGCUCG: -0.123 ± 0.086 and -0.0297 ± 0.11. GGACAGCAAUAUUACGCUCU: the “self-splicing fitness (ln)” value (30 °C) was -2.19 ± 0.25. In the case of GGACAGCAAUAUUACGCUGU, the “self-splicing fitness (ln)” value was -2.73 ± 0.21 (30 °C) and -2.96 ± 0.31 (37 °C).

Regarding GGACAGCAAUAUUACGGAGA, the “self-splicing fitness (ln)” value reads like this: (30 °C) -2.98 ± 0.15; (37 °C) -2.61 ± 0.2. As for GGACAGCAAUAUUACGGGAU, the “self-splicing fitness (ln)” value was -2.05 ± 0.087 (30 °C) and -0.814 ± 0.1 (37 °C). The matching figures for GGACAGCAAUAUUACGGGGA: -2.72 ± 0.16 and -3.05 ± 0.26. Turning to GGACAGCAAUAUUACGGGUA, the “self-splicing fitness (ln)” value was -2.33 ± 0.11 (30 °C) and -1.67 ± 0.093 (37 °C). With GGACAGCAAUAUUACGGUGA, the “self-splicing fitness (ln)” value is, setting by setting: (30 °C) -0.838 ± 0.063; (37 °C) -0.167 ± 0.071. The matching figures for GGACAGCAAUAUUACGGUUC: -3.64 ± 0.15 and -1.82 ± 0.14.

Take GGACAGCAAUAUUACGUGGG: the “self-splicing fitness (ln)” value (30 °C) is -2.49 ± 0.12 and the “self-splicing fitness (ln)” value (37 °C) was -2.28 ± 0.12. As to GGACAGCAAUAUUACGUUCG, the “self-splicing fitness (ln)” value runs as follows: (30 °C) -0.223 ± 0.076; (37 °C) 0.0323 ± 0.095. For the sequence GGACAGCAAUAUUACGUUGG, the “self-splicing fitness (ln)” value (30 °C) was -1.69 ± 0.088 and the “self-splicing fitness (ln)” value (37 °C) is -0.723 ± 0.11.

For the sequence GGAGAGCAAUAUUACGAAAC, the “self-splicing fitness (ln)” value reads like this: (30 °C) -2.48 ± 0.29; (37 °C) -1.36 ± 0.47. The matching figures for GGAGAGCAAUAUUACGACCU: -1.9 ± 0.24 and -0.666 ± 0.26. GGAGAGCAAUAUUACGACGU: the “self-splicing fitness (ln)” value was -1.29 ± 0.2 (30 °C) and -0.823 ± 0.25 (37 °C). The matching figures for GGAGAGCAAUAUUACGAGAG: -3.07 ± 0.25 and -2.31 ± 0.33. Regarding GGAGAGCAAUAUUACGAGGC, the “self-splicing fitness (ln)” value reads like this: (30 °C) -2.83 ± 0.23; (37 °C) -1.95 ± 0.37. The matching figures for GGAGAGCAAUAUUACGCACU: -2.77 ± 0.49 and -1.94 ± 0.46. The matching figures for GGAGAGCAAUAUUACGCGCU: -2.69 ± 0.25 and -1.67 ± 0.28. Turning to GGAGAGCAAUAUUACGCGGU, where the note is “30 °C”, the “self-splicing fitness (ln)” value was -3.77 ± 0.47.
